Measured values as given in EP4740964A1, “NANO DELIVERY SYSTEM, PREPARATION METHOD THEREFOR AND USE THEREOF” (Chen, Haiyan, priority 2023, dated 2025).

T1: CD19 on the surface of Raji cells (UniProt P15391 20-556, limits assumed)
T1 construct: whole, on cells; also called antigen CD19
T1 sequence (looked up): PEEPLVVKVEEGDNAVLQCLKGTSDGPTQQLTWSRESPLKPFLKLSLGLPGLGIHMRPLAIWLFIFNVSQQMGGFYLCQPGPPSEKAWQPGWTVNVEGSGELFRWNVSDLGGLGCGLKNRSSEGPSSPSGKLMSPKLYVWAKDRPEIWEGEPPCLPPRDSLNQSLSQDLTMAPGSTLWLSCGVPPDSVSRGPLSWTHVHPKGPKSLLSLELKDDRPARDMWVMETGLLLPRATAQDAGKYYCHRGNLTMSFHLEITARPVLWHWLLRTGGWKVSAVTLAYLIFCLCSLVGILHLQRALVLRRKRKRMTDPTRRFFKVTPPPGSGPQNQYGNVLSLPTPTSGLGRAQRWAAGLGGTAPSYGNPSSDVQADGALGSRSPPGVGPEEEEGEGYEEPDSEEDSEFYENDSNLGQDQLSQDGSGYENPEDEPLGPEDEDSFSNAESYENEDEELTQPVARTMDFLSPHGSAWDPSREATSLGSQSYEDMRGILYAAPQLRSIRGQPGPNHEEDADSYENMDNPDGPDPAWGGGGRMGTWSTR

B1: CD22 IgG antibody (antibody, V domains shown)
VH: EVQLVQSGAEVKKPGASVKVSCKASGYRFTNYWIHWVRQAPGQGLEWIGGINPGNNYATYRRKFQGRVTMTADTSTSTVYMELSSLRSEDTAVYYCTREGYGNYGAWFAYWGQGTLVTVSS
VL: DVQVTQSPSSLSASVGDRVTITCRSSQSLANSYGNTFLSWYLHKPGKAPQLLIYGISNRFSGVPDRFSGSGSGTDFTLTISSLQPEDFATYYCLQGTHQPYTFGQGTKVEIKR
B2: CD19 IgG antibody (antibody, V domains shown)
VH: QVQLVQSGAEVKKPGSSVKVSCKASGYAFSSYWMNWVRQAPGQGLEWMGQIWPGDSDTNYAQKFQGRVTITADESTSTAYMELSSLRSEDTAVYYCARRETTTVGRYYYAMDYWGQGTTVTVSS
VL: DIQLTQSPSFLSASVGDRVTITCKASQSVDYSGDSYLNWYQQKPGKAPKLLIYDASNLVSGVPSRFSGSGSGTEFTLTISSLQPEDFATYYCQQSTENPWTFGGGTKLEIKR
B3: CD19 antibody antigen-binding fragment Fab (Fab, V domains shown)
VH: B2 VH
VL: B2 VL
notes: also called CD19 Fab

Key:
[1] = target: T2, CD22 on the surface of Raji cells (UniProt P20273 20-847, limits assumed); assay: flow cytometry on Raji cells, Alexa Fluor 488 anti-human IgG detection
T2 construct: whole, on cells; also called antigen CD22

[2] = target: T1, CD19 on the surface of Raji cells; assay: as above

| Binder | binding result [1] | binding result [2] |
| --- | --- | --- |
| B1 | binds |  |
| B2 |  | binds |
| B3 |  | binds |
